The chains are these.
B1: TPR t1 (parent)
chain: GACCAAUCUGCCCUCAGAGCUCGAGAACAUCUUCGGAUGCAGAGGAGGCAGGCUUCGGUGGCGCGAUAGCGCCAACGUCCUCAACCUCCAAUGCAUCCCACCACAUGAUGAUGCCUGAAGAGCCUUGGUUUUUUG

The variants in this series derive from B1. The series can be described thus: polymerase ribozyme fitness, log enrichment relative to wild type (log ratio); higher = more active; in vitro selection for triplet polymerase activity. The method, boiled down: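 Mutant libraries for each subunit of a heterodimeric triplet polymerase ribozyme were made by PCR and then transcribed. Each library underwent one round of in vitro selection in triplicate: annealing with a biotinylated primer, the partner subunit and triplets, frozen incubation at −7 °C, gel excision of extended constructs, streptavidin-bead capture and RT-PCR. Input and output libraries were Illumina-sequenced, and only genotypes with ≥10 input reads and ≥1 read per output were kept. Fitness is the logarithm, base 2, of genotype enrichment over wild-type enrichment, computed from inverse-variance-weighted replicate averages.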
For the variant GACCAAUCUGCCCUCAGAGCUCGAGAACAUCUUCGGAGGCACUGGAGGCAGGCUUCGGUGGCGCGAUAGCCCCAACGUCCUUAACCUCCAAUGCAUCCCACCACAUGAUGAUGCUUGAAGAGCCUUGGUUUUUUG, the “polymerase ribozyme fitness (log ratio)” value was -4.36.

Consider GACCAAUCUGCCCUCAGAGCUCGAGAACAUCUUCGGACGCAGAGGUGGCAGGCUUCGGUGGCGCGAUAGCGCCAACGUCCUCAACCUCCAAUGCAUCCCCCCACAUGAUGAUGCCUGAAGAGCCUUGGUUUUUUG, for which the “polymerase ribozyme fitness (log ratio)” value was -4.28.

For GACCAAUCUGCCCUCAGAGCUCGAGAACAUCUUCGGAGGCAGAGGAGGCAGGCUUCGGUGGCGCGAUAGCGCCAACGUCCUCAACCUCCUAUGCAUCCCACCACAUGAUGAUGCCUGAAGAGCCUUGGUUUUUUG, the “polymerase ribozyme fitness (log ratio)” value was -1.61.

In the case of GACCAAUCUGCCCUCAGAGCUCGAGAACAUCUUCGGAGGCAGAGGAGGCAGGCUUCGGUGGCGCGAUAGCGCCAACGUCUUCAACCUCCAAUGCAUCCCACCACAUGAUGAUGCCUGAAGAGCCUUGGUUUUUUG, the “polymerase ribozyme fitness (log ratio)” value was -1.64.

Regarding GACCAAUCUGCCCUCAGAGCUCGAGAACAUCUUCGGAGGCAGAGGAGGCAGGCUUCGGUGGCGCGAUAGCGCGAACGUCCUCAACCUCCAAUGCCUCCCCCCACAAGAUGAUGCCUGAAGAGCCUUAGUUUUUUG, the “polymerase ribozyme fitness (log ratio)” value was -2.6.

For the variant GACCAAUCUGCCCUCAGAGCUCGAGAACAUCUUCGGAGGCAGAGGAGGCAGGCUUCGGUGGCGCGAUAGCGCCAACGUCCUCAACCUCCAAUGCAUUCCACCACAUGAUGAUGCCUGAAGAGCCUUGGUUUUUUG, the “polymerase ribozyme fitness (log ratio)” value is -4.33.

As for GACCAAUCUGCCCUCAGAGCUCGAGAACAUCUUCGGAGGCAGAGGAGGCAGGCUUCGGUGGCGCGAUAGCGCCAACGUCCUCAACCUCCAAUGCAUCCCAACACAUGAUGAUGCCUGAAGAGCCUUGGUUUUUUG, the “polymerase ribozyme fitness (log ratio)” value is -1.88.

Take GACCAAUCUGCCCUCAGAGCUCGAGAACAUCUUCGGAGGCAGAAGAGGCAGGCUUCGGUGGCGCGAUAGCGCCAACGUCCUCAACCUCCAAUGCAUCCCACCACAUGAUGAUGCCUGAAGAGCCUUGGUUUUUUG: the “polymerase ribozyme fitness (log ratio)” value is -2.72.

On to GACCAAUCUGCCCUCAGAGCUCGAGAACAUCUUCGGAGGCAGAGGUGGCAGGCUUCGGUGGCGCGAUAGCGCCAACUUCCUCAACCUCCAAUGCAUCCCACCACAUGAUGAUGCCUGAAGAGCUUUGGUUUUUUG, for which the “polymerase ribozyme fitness (log ratio)” value is -1.67.

On to GACCAAUCUGCCCUCAGAGCUCGAGAACAUCUUCGGAGGCAGAGGAGGCAGGCUUUGGUGGCGCGAUAGCGACAACGUCCUCAACCUCCAAUGCAUCCCACCACAUGAUGAUGCCUGAAGAGCCUUGGUUCUUUG, for which the “polymerase ribozyme fitness (log ratio)” value was -2.05.

As for GACCAAUCUGCCCUCAGAGCUCGAGAACAUCUUCGGAAGCAGAGGAGGCAGGCUUCGGUGGCGCGAUAGCUCCAACGUCUUCAACCUCCAAUGCGUCCCACCACAUGAUGAUGCCUGAAGAGCAUUGGUUUUUUG, the “polymerase ribozyme fitness (log ratio)” value was -0.159.

On to GACCAAUCUGCCCUCAGAGCUCGAGAACAUCUUCGGAAGCAGAGCAGGCAGGCUUCGGUGGCGCGAUAGCGCCAACGUCCUCAACCUCUAAUGCAUCCCACCACAUGAUGAUGCCUGAAGAGCCUUGGUUUUUUG, for which the “polymerase ribozyme fitness (log ratio)” value is -2.34.

With GACCAAUCUGCCCUCAGAGCUCGAGAACAUCUUCGGAGGCAGAGGAGGCAGGUUUCGGUGGCGCGAUAGCGCCAACGUCCUCAACCUCCAAUGCAUCCCACCACAUGAUGAUGCCUGAAGAGCUUUGGUUUUUUG, the “polymerase ribozyme fitness (log ratio)” value came to 0.103.

Regarding GACCAAUCUGCCCUCAGAGCUCGAGAACAUCUUCGGAGGUAGAGGAGGCAGGCUUCGGUGGCGCGAUAGCGCCAACGUCCUCAACCUCCAAUGCAUCCCACCACAUGAUGAUGCCUGAAGAGCCUUGGUUUUUUG, the “polymerase ribozyme fitness (log ratio)” value was -1.03.

For the variant GACCAAUCUGCCCUCAGAGCUCGAGAACAUCUUCGGAAGCAGAGGAGGCAGGCUUCGGUGGCGCGAUAGCGCCAACGUCCUCAACCUCCAAUGCAACCCACCACAUGAUGAUGCCUGAAGAGCCUUGGUUUUUUG, the “polymerase ribozyme fitness (log ratio)” value is -1.13.

GACCAAUCUGCCCUCAGAGCUCGAGAACAUCUUCGGACGCAGAGGAGGCAGGCUUUGGUGGCGCGAUAGCGCCAACGUCCUCAACCUCCAAUGCAUCCCACCACAUGAUGAUGCCUGAAGAGCCUUGGUUUUUUG: the “polymerase ribozyme fitness (log ratio)” value was -0.488.

Consider GACCAAUCUGCCCUCAGAGCUCGAGAACAUCUUCGGAAGCAGAGGAGGCAGGCUUCGGUUGAGCGAUAGCGCCUACGUCCUCAACCUCCAAUGCAUCCCACCACAUGAUGAUGCGUGAAGAGCCUUGGUUUUUUG, for which the “polymerase ribozyme fitness (log ratio)” value was -6.4.

As for GACCAAUCUGCCCUCAGAGCUCGAGAACAUCUUCGGAGGCAGAGGAGGCAGGCUUCGGUGGCGCGAUAGCGCCAACGUCAUCAACCUUCAAUGCAUCCCACCACAUGAUGAUGCCUGAAGAGCCUUGGUUUUUUG, the “polymerase ribozyme fitness (log ratio)” value was -4.45.

With GACCAAUCUGCCCUCAGAGCUCGAGAACAUCUUCGGAGGCUGAGGAGGCAGGCUUCGGUGGUGCGAUAGCGCCAACGUCCUCAACCUCCAAUGCAUCCCACCACAUGAUGAUGCCUGAAGAGCCUUGGUUUUUUG, the “polymerase ribozyme fitness (log ratio)” value is -3.01.

Turning to GACCAAUCUGCCCUCAGAGCUCGAGAACAUCUUCGGAAGCAGAGGAGGCAGGCUUCGGUGGCGCGAUAGCGCCAACGUCCUCAACCUCCAAUGCAUCCCACCACAUGAUGAUGACUGAAGUGCCUUGGUUUUUUG, the “polymerase ribozyme fitness (log ratio)” value is -1.59.

In the case of GACCAAUCUGCCCUCAGAGCUCGAGAACAUCUUCGGACGCAGAGGAGGCAGGCUUCGGUGGCCCGAUAGCGCCAACGUCCUCAACCUCCAAUGCAUCCCACUACAUGAUGAUGCCUGAAGAGCCUUGGUUUUUUG, the “polymerase ribozyme fitness (log ratio)” value was -3.7.

In the case of GACCAAUCUGCCCUCAGAGCUCGAGAACAUCUUCGGAGGCAGAGGAGGUAGGCUUCGGUGGCGCGAUAGCGCCAACGUCCUCAACCUCCAAUGCAUCCCACCACAUGAUGAUGCCUGAAGAGCCGUGGUUUUUUG, the “polymerase ribozyme fitness (log ratio)” value was -2.98.

As for GACCAAUCUGCCCUCAGAGCUCGAGAACAUCUUCGGAAACAGAGGAGGCAGGCUUCGGUGUCGCGAUAGCGCCAACGUCCUCAACCUCCAAUGCAUCCCACCACAUGAUGAUGCCUGAAGAGCCUUGGUUUUUUG, the “polymerase ribozyme fitness (log ratio)” value was -1.2.

Turning to GACCAAUCUGCCCUCAGAGCUCGAGAACAUCUUCGGAAGCAGAGGAGGCAGGCGUCGGUGGCGCGAUAGCGCCAACGUCCUCAACCUCCAAUGCAUCCCACCACAUGAUGACGCCUGAAAAGCCUUGGUUUUUUG, the “polymerase ribozyme fitness (log ratio)” value was -0.498.

Regarding GACCAAUCUGCCCUCAGAGCUCGAGAACAUCUUCGGAGGCAGAGGAGGCAGGAUUCGGUGGCGCGAUAGCGCCAACGUCCCCAACCUCCAAUGCAUCCCAUCACAUGAUGAUGCCUGAAGAGCGUUGGUUUUUUG, the “polymerase ribozyme fitness (log ratio)” value was found to be 1.

As to GACCAAUCUGCCCUCAGAGCUCGAGAACAUCUUCGGACGCACAGGAGGCAGGCUUCGGUGGCGCGAUAGCGCCAACGACCUCACCCUCCAAUGCAUCCCACCACAUGAUGAUGCCUGAAGAGCCUUGGUUUUUUG, the “polymerase ribozyme fitness (log ratio)” value was -3.16.

For the variant GACCAAUCUGCCCUCAGAGCUCGAGAACAUCUUCGGAAGCAGAGGAGGCAGGCUUCGGUGGCGCGAUAGCGCCAACGUCCUCAACCUCCAAUGCAUCCCACCACAUGAUGAUGCCUGAAUAGCCUUGGUUUUUUG, the “polymerase ribozyme fitness (log ratio)” value was 0.263.

With GACCAAUCUGCCCUCAGAGCUCGAGAACAUCUUCGGAAGCAGAGGAGGCAGGCUUCGGUGACGCGAUAGCGCCAACGUCCUCAACCUCCAAUGCAUCCCACCACAUGAUGAUGCCUGAAGAGCCUUGGUUUUUUG, the “polymerase ribozyme fitness (log ratio)” value was -1.68.

In the case of GACCAAUCUGCCCUCAGAGCUCGAGAACAUCUUCGGAGGCAAAGGAGGCAGGCUUCGGUGGCGCGAUAGCGCCAACGUUCUCAACCUCCAAUGCAUCCCACCACAUGAUGAUGCCUGAAGAGCCUUGGUUUUUUG, the “polymerase ribozyme fitness (log ratio)” value is -2.56.

Regarding GACCAAUCUGCCCUCAGAGCUCGAGAACAUCUUCGGAGGCAGAGGAGGAAGGCUUCGGUGGCGCGAUAGCGCCAACUUCCUCAAGCUCCAAUGCAUCCCACCACAUGAUGAUGCAUGAAGAGCCUUGGUUUUUUG, the “polymerase ribozyme fitness (log ratio)” value is -3.84.

Regarding GACCAAUCUGCCCUCAGAGCUCGAGAACAUCUUCGGAGGCAGAGGAGGCAGGCUUCGGUGGCGCGAUAGCGCCAACGUCCUCAACCUCUAAUGCAUCCCACCACAUGAUGAUGCCUGAAGAGCCUUGGUUUUUUG, the “polymerase ribozyme fitness (log ratio)” value was -0.78.

For the variant GACCAAUCUGCCCUCAGAGCUCGAGAACAUCUUCGGAGACAGAGGAGGCAGGCUUCGGUGGCGCGAUAGCGACAACGUCCACAACCUCCAAUGCAUCCCACCACAUGAUGAAGCCUGAAGAGCCUUGGUUUUUUG, the “polymerase ribozyme fitness (log ratio)” value was -2.71.

On to GACCAAUCUGCCCUCAGAGCUCGAGAACAUCUUCGGAGGCUGAGGAGGCAGGCUUCGGUGGCGCGAUAGCGCCAACGUCCUCAACCUCCAAUGCAUCCCACCACAUGAUGAUGCCUGAAGAGCCUUGGUUUUUUG, for which the “polymerase ribozyme fitness (log ratio)” value is -2.98.

Regarding GACCAAUCUGCCCUCAGAGCUCGAGAACAUCUUCGGAGGCAGAGGAGGCAGGCUUCGGUGGCGCGAUAGCGCCAACGUCCUCAACCUCCAAUGCAUCCCACCACCUGAUGAAGCCUGAAGACCCUUGGUUUUUUG, the “polymerase ribozyme fitness (log ratio)” value is -5.07.

With GACCAAUCUGCCCUCAGAGCUCGAGAACAUCUUCGGAGGCAGAGGAGGCAGGCUUCGGUGGCGCGAUAGCGCCAACGUCCUCAACCUCCAAUGCAUCCCACUACAUGAUGAUGCCUGAAGAGCCUUGGUUUUUUG, the “polymerase ribozyme fitness (log ratio)” value was -3.84.

As to GACCAAUCUGCCCUCAGAGCUCGAGAACAUCUUCGGAGGCAGAGGAGGCAGGCUUCGGUGGCGCGAUAGCGCCAACGUCCUCAACCUCCAAUGCAUCCCACCACAUGAUGAUGCCUGAAGCGCCUUGGUUUUUUG, the “polymerase ribozyme fitness (log ratio)” value worked out at 1.24.

As to GACCAAUCUGCCCUCAGAGCUCGAGAACAUCUUCGGAAGCAGAGGAGGCAGGCUUCGGUAGCGCGAUAGCGCCAACGUCCUCAACCUCCAAUGCAUCCCACCACAUGAUGAUGCCUGAAGCGCCUUGGUUUUUUU, the “polymerase ribozyme fitness (log ratio)” value was -1.36.

As to GACCAAUCUGCCCUCAGAGCUCGAGAACAUCUUCGGAAGCAGAGGAGGCAGGCUUCGGUGGCGCGAUAGCGCCAACGUCCUCAACCUCCAAUGCAUCCCACCACAUGAUGAUGCCUGAAGAGCCUUAGUUUUUUG, the “polymerase ribozyme fitness (log ratio)” value was -2.5.

On to GACCAAUCUGCCCUCAGAGCUCGAGAACAUCUUCGGAGGCAGAGGAGGCAGGCUUCGGUGGCGCGAUAGCGCCAACGUCCUGAACCUCCAAUGCGUCCCACCACAUGAUGAUGCCUGAAGAGCCUUGGUUUUUUG, for which the “polymerase ribozyme fitness (log ratio)” value is -2.72.

As for GACCAAUCUGCCCUCAGAGCUCGAGAACAUCUUCGGAGGCAUAGGAGGCAGGCUUCGGUGUCGCGAUAGCGCUAACGUCCUCAACCUCCAAUGCAUCCCACCACAUGAUGAUGCUUGAAGAGCCUUGGUUUUUUG, the “polymerase ribozyme fitness (log ratio)” value was -3.73.

On to GACCAAUCUGCCCUCAGAGCUCGAGAACAUCUUCGGAAGCAGAGGAGGCAGGCUUCGGUGGCACGAUAGCGCCAACGUCCUCAACCUCCAAUGCAUCCCACCACAUGAUGAUGCCUGAAGAGCCUUGGUUUUUUG, for which the “polymerase ribozyme fitness (log ratio)” value was -2.12.

As to GACCAAUCUGCCCUCAGAGCUCGAGAACAUCUUCGGAGGCAGAGGAGGCAGGCUUCGGUGGAGCGAUAGCGCCAACGUCCUCAACCUCCAAUGCAUCCCACCACAAGAUGAUUCCUGAAGAGCCUUGGUUUUUUG, the “polymerase ribozyme fitness (log ratio)” value was -6.66.

The values above are taken from the RNAGym collection of RNA variant scans (doi:10.1073/pnas.2313332121).
